This note sets out measurements from PMC3820547 (2013).

B2: Replication Protein A (Q9V1Z1, Q9V1Y9, Q9V1Z0), His-tagged RPA complex (complex)
chain 1: MVNVKNRNILRYSKVVDMTVLTKDRIIEIIERKTGMSREEIEEEIRKIMEEDPYLSEQGAAALLAERLGIDLIEKEEVSLMRISELYPGMDPREVNVVGRVLKKYPPREYTRKDGSVGRVASLIIYDDSGRARVVLWDAKVSEYYNKIEVGDVIKVLDAQVKESLSGLPELHINFRARIILNPDDPRVEMIPPLEEVRVATYTRKKIKDIEAGDRFVEVRGTIAKVYRVLTYDACPECKKKVDYDEGLGVWICPEHGEVQPIKMTILDFGLDDGTGYIRVTLFGDDAEELLGVSPEEIAEKIKELEESGLTTKEAARKLAEDEFYNIIGREIVVRGNVIEDRFLGLILRASSWEDVDYRREIERIKEELEKLGVM
chain 2: MVIEMKKRMPATRLYIKDILEGYFVKSEGDFEPNYLITKYARKVYRAKIVGTVVREPLIAEDETYGKFQVDDGTGVIWVLGFRDDTKFAKLVRKGDLVQVIGKIAEWRDDKQILVEGVSKVHPNMWILHRYETLKEKIEHIKKAKIALEIYNQYGITAKSKVIAKNKGIEEELLEVIDELYGIMMEERSIEEPMEELLEEEIPEEKEENELLEKAKEDILNILRQKRTAISRKYILKKLGDKYDEETIDDAITELLAQGEIYEPETGYYKLL
chain 3: MEVQVRRRKPAVERKISEIREEDTRVSLIGRVIKVDKMDYMFWLDDGTGVAIIESESDLPKVGQVVRVIGRIIRNEEGIHIYAEVIQDFSDADLEALEEIRELERKLLPRLEGEIVW

Holding throughout (assay): SPR; RPA bound to 32mer ssDNA
Background: Surface plasmon resonance follows binding to a sensor surface in real time, without labels.

For assay [1], the target named is B2.
Assay [2] has as its target B2.
For assay [3], the target named is T1, DNA Polymerase D (Q9V2F3, Q9V2F4), HIS-tagged complex (Pyrococcus abyssi, UniProt Q9V2F3 1-619; Q9V2F4 1-1455).
Assay [4] addresses T1, DNA Polymerase D (Q9V2F3, Q9V2F4), …. This is another data set of the same source.

B1: Primase small subunit P41 (Q9V292), HIS-tagged (natural protein)
chain: MLLREVTKEERKEFYSNEWNAKQIPDFILQNLDKREFGFDHTGEGPSDRKNSYTDVRDLEDYIKATAPYAVYSSVAFYEKPQEMEGWLGAELVFDIDAKDLPLRRCNHEPGKVCPICLNDAKEIARDTLIVLKEELGFEDVHVVYSGRGYHIRVMDGWALSLDSKSRERILSFISASEIEDHSEFRKMLLERRGWFVLNHGYPRVFRLRFGYFILRVKVEHLINFGIRKNIAKRILDNKETIYEEFVRKGILAAFPDGVGIESLAKLFALSTRFSKAYFDGRVTVDLKRILRLPSTLHSKVGLIAKYIGNNERDVMRFNPFKHAVPKFRRKEVKEEYKRFLEENF
B1 yielded a koff in assay [1] of 0.000454 s⁻¹. The same molecule gave a Kd in assay [2] of 52 nM.
B2: the koff in assay [3] is 0.000202 s⁻¹. This molecule had a dissociation constant (Kd) in assay [4] of 51 nM.

As a reminder, the koff is the first-order rate constant of dissociation. Low readings indicate a long-lived complex, high ones a short-lived complex. As usually defined, the Kd is the concentration at which binding is half-saturated.
